Assay results: PMC2191747 (The Journal of Experimental Medicine, 1994)
Residue numbers refer to the chain shown, from its start. Values belong to the molecule of their own block, whether it stands above or below them.

Key:
Experiment in all cases: cell-cell adhesion assay
[1] = molecular target: human CD58 K34A (human) (UniProt P19256)
[2] = molecular target: T1, human CD58 R44A (human, UniProt P19256 29-250, R44A)
T1 sequence (looked up): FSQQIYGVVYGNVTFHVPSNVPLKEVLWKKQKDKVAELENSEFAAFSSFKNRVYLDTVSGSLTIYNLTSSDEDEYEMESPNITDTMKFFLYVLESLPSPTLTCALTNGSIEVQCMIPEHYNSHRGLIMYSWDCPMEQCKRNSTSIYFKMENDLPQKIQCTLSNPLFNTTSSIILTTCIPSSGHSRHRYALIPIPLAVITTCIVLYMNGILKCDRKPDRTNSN

[3] = molecular target: T2, human CD58 E76A (human, UniProt P19256 29-250, E76A)
T2 sequence (looked up): T1 sequence (looked up) with A44R, E76A

[4] = molecular target: T3, human CD58 K87A (human, UniProt P19256 29-250, K87A)
T3 sequence (looked up): T1 sequence (looked up) with A44R, K87A

[5] = molecular target: T4, human CD58 E25A (human, UniProt P19256 29-250, E25A)
T4 sequence (looked up): T1 sequence (looked up) with E25A, A44R

[6] = molecular target: T5, human CD58 K30A (human, UniProt P19256 29-250, K30A)
T5 sequence (looked up): T1 sequence (looked up) with K30A, A44R

[7] = molecular target: T6, human CD58 D33A (human, UniProt P19256 29-250, D33A)
T6 sequence (looked up): T1 sequence (looked up) with D33A, A44R

[8] = molecular target: T7, human CD58 E37A (human, UniProt P19256 29-250, E37A)
T7 sequence (looked up): T1 sequence (looked up) with E37A, A44R

% binding relative to wtCD58 [1]: 1%
Molecule: human CD2 (from UniProt P06729 25-351) (receptor)

% binding relative to wtCD58 [2]: 79% | % binding relative to wtCD58 [3]: 107% | % binding relative to wtCD58 [4]: < 30% | % binding relative to wtCD58 [5]: 68% | % binding relative to wtCD58 [6]: 64% | % binding relative to wtCD58 [7]: 26% | % binding relative to wtCD58 [8]: < 30%
B1: human CD2 (receptor, human (endogenous in Jurkat), UniProt P06729 25-351, looked up)
chain: KEITNALETWGALGQDINLDIPSFQMSDDIDDIKWEKTSDKKKIAQFRKEKETFKEKDTYKLFKNGTLKIKHLKTDDQDIYKVSIYDTKGKNVLEKIFDLKIQERVSKPKISWTCINTTLTCEVMNGTDPELNLYQDGKHLKLSQRVITHKWTTSLSAKFKCTAGNKVSKESSVEPVSCPEKGLDIYLIIGICGGGSLLMVFVALLVFYITKRKKQRSRRNDEELETRAHRVATEERGRKPHQIPASTPQNPATSQHPPPPPGHRSQAPSHRPPPPGHRVQHQPQKRPPAPSGTQVHQQKGPPLPRPRVQPKPPHGAAENSLSPSSN
